Laboratory results reported in paper PMC11417369, “DNA sequence and chromatin differentiate sequence-specific transcription factor binding in the human malaria parasite Plasmodium falciparum”.

Legend:
Assay in all cases: gcPBM; about 25 ug protein; PBS, 1% milk, 0.2 mg/ml BSA, salmon testes DNA, 0.03% Triton X-100
HDP1 homeodomain-like = target: T1, HDP1 homeodomain-like (Plasmodium falciparum, UniProt Q8IKH4 2990-3078); conditions: tags: N-terminal GST (pGEX-4T-1), kept; chain copies: 2; label: surface-attached array probe
T1 sequence: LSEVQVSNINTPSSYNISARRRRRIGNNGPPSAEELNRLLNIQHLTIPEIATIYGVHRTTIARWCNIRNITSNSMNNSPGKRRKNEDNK

AP2-I D3 = AP2-I D3 (Plasmodium falciparum, UniProt Q8IJW6 910-1027); conditions: tags: N-terminal GST (pGEX-4T-1), kept; label: surface-attached array probe
SIP2 D1 = target: T2, SIP2 D1 (Plasmodium falciparum, UniProt C6KSN9 177-235); conditions: tags: N-terminal GST (pGEX-4T-1), kept; label: surface-attached array probe
T2 sequence: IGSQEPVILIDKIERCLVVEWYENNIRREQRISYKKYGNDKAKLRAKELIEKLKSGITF

| Binder | binding signal (HDP1 homeodomain-like) | binding signal (AP2-I D3) | binding signal (SIP2 D1) |
| --- | --- | --- | --- |
| GTGCAC_site9478 (dsDNA) DNA 1: ATATTATATTGGATGTTGCACTTAACAAAAGGATAT DNA 2: ATATCCTTTTGTTAAGTGCAACATCCAATATAATAT | 8.41 ln median PBM intensity, better of two orientations | 9.38 ln median PBM intensity, better of two orientations | – |
| GTGCAC_site10094 (dsDNA) DNA 1: TATTAACAAATTTATGTGCACTGAGGACAAATATAT DNA 2: ATATATTTGTCCTCAGTGCACATAAATTTGTTAATA | 10.3 ln median PBM intensity, better of two orientations | – | 10.5 ln median PBM intensity, better of two orientations |
| GTGCAC_site10218 (dsDNA) DNA 1: GATATATATACATGTGTGCACCATGCAACTTGTTTT DNA 2: AAAACAAGTTGCATGGTGCACACATGTATATATATC | 9.57 ln median PBM intensity, better of two orientations | – | 11.1 ln median PBM intensity, better of two orientations |
| GTGCAC_site9798 (dsDNA) DNA 1: ATCATATGTATGGTGGTGCATTATGCATGAATTTTA DNA 2: TAAAATTCATGCATAATGCACCACCATACATATGAT | 10.4 ln median PBM intensity, better of two orientations | 12 ln median PBM intensity, better of two orientations | – |
| GTGCAC_negctrl_site23 (dsDNA) DNA 1: TCCTATATATAAATATTAATATATATGTATTGGTAT DNA 2: ATACCAATACATATATATTAATATTTATATATAGGA | 6.35 ln median PBM intensity, better of two orientations | – | 6.91 ln median PBM intensity, better of two orientations |
| GTGCAC_site10780 (dsDNA) DNA 1: TACAGTTCAATGAAGGTGCAATTAATATATAAAATA DNA 2: TATTTTATATATTAATTGCACCTTCATTGAACTGTA | 9.1 ln median PBM intensity, better of two orientations | 11.1 ln median PBM intensity, better of two orientations | – |
| GTGCAC_site10741 (dsDNA) DNA 1: AAACAAAACAACTAAGTGCATAAAAATAAAATAAAT DNA 2: ATTTATTTTATTTTTATGCACTTAGTTGTTTTGTTT | 8.67 ln median PBM intensity, better of two orientations | 10.7 ln median PBM intensity, better of two orientations | – |
| GTGCAC_site9541 (dsDNA) DNA 1: ATGAGTAACATATTTGTGCACATATGGTTATTTTTA DNA 2: TAAAAATAACCATATGTGCACAAATATGTTACTCAT | 11.1 ln median PBM intensity, better of two orientations | 10.4 ln median PBM intensity, better of two orientations | – |
| GTGCAC_site9829 (dsDNA) DNA 1: GAACGAAATAAGTGTGTGCACATGTAACCACAAATC DNA 2: GATTTGTGGTTACATGTGCACACACTTATTTCGTTC | 9.93 ln median PBM intensity, better of two orientations | 9.08 ln median PBM intensity, better of two orientations | – |
| GTGCAC_site10490 (dsDNA) DNA 1: TTTATATTTATTGTTGTGCACAGAACCATATTCGTT DNA 2: AACGAATATGGTTCTGTGCACAACAATAAATATAAA | 11.1 ln median PBM intensity, better of two orientations | – | 10.4 ln median PBM intensity, better of two orientations |
| GTGCAC_site9796 (dsDNA) DNA 1: ATATATATATATATAGTGCAAATAAAAAATAGACAA DNA 2: TTGTCTATTTTTTATTTGCACTATATATATATATAT | 10 ln median PBM intensity, better of two orientations | 11.2 ln median PBM intensity, better of two orientations | – |
| GTGCAC_site9629 (dsDNA) DNA 1: ATATCAAATAATTTAGTGCACTTTTTTTTTTCTTTT DNA 2: AAAAGAAAAAAAAAAGTGCACTAAATTATTTGATAT | 10.8 ln median PBM intensity, better of two orientations | 12 ln median PBM intensity, better of two orientations | – |
| GTGCAC_negctrl_site342 (dsDNA) DNA 1: TATTTATATAATCCTATAATATTACTACTATCTTTA DNA 2: TAAAGATAGTAGTAATATTATAGGATTATATAAATA | 6.28 ln median PBM intensity, better of two orientations | 6.86 ln median PBM intensity, better of two orientations | – |
| GTGCAC_site10095 (dsDNA) DNA 1: CTATATATAACCCATGTGCACTTTTTATGTACAATA DNA 2: TATTGTACATAAAAAGTGCACATGGGTTATATATAG | 10.1 ln median PBM intensity, better of two orientations | – | 10.2 ln median PBM intensity, better of two orientations |
| GTGCAC_site9574 (dsDNA) DNA 1: ATCATATTTATGTTGGTGCATTATACATAAAGTTTA DNA 2: TAAACTTTATGTATAATGCACCAACATAAATATGAT | 10.4 ln median PBM intensity, better of two orientations | 12.1 ln median PBM intensity, better of two orientations | – |
| GTGCAC_site9591 (dsDNA) DNA 1: ACATATTATATATGTGTGCACATATATATATATTTA DNA 2: TAAATATATATATATGTGCACACATATATAATATGT | 9.98 ln median PBM intensity, better of two orientations | 9.12 ln median PBM intensity, better of two orientations | – |
| GTGCAC_site9569 (dsDNA) DNA 1: TATTTGTATATATGTGTGCACGTATAATCCATTAAA DNA 2: TTTAATGGATTATACGTGCACACATATATACAAATA | 9.32 ln median PBM intensity, better of two orientations | – | 11.3 ln median PBM intensity, better of two orientations |
| GTGCAC_negctrl_site631 (dsDNA) DNA 1: AGAAGGTAAATAATTTACCCATATATATAAATATAT DNA 2: ATATATTTATATATATGGGTAAATTATTTACCTTCT | 6.21 ln median PBM intensity, better of two orientations | – | 6.91 ln median PBM intensity, better of two orientations |
| GTGCAC_site9920 (dsDNA) DNA 1: ATAATTATATGATGAGTGCACAATAAAAATATCGTT DNA 2: AACGATATTTTTATTGTGCACTCATCATATAATTAT | 9.38 ln median PBM intensity, better of two orientations | 11.2 ln median PBM intensity, better of two orientations | – |

| Binder | binding signal (HDP1 homeodomain-like) | binding signal (AP2-I D3) | binding signal (SIP2 D1) |
| --- | --- | --- | --- |
| GTGCAC_site9474 (dsDNA) DNA 1: GCCCCCAAATTATGTGTGCACTTTATATTCCTGAGA DNA 2: TCTCAGGAATATAAAGTGCACACATAATTTGGGGGC | 9.62 ln median PBM intensity, better of two orientations | – | 11.2 ln median PBM intensity, better of two orientations |
| GTGCAC_site10017 (dsDNA) DNA 1: ATATATACTATAATAGTGCATTAAAAAAGTAAAAAT DNA 2: ATTTTTACTTTTTTAATGCACTATTATAGTATATAT | 9.53 ln median PBM intensity, better of two orientations | 12 ln median PBM intensity, better of two orientations | – |
| GTGCAC_site10685 (dsDNA) DNA 1: TTATATTTCACAAATGTGCACAGATACATATATATA DNA 2: TATATATATGTATCTGTGCACATTTGTGAAATATAA | 11.1 ln median PBM intensity, better of two orientations | 10.1 ln median PBM intensity, better of two orientations | – |
| GTGCAC_site9967 (dsDNA) DNA 1: ACATCGATTTATATTCTGCACTGAAGAAACTACAAC DNA 2: GTTGTAGTTTCTTCAGTGCAGAATATAAATCGATGT | 7.69 ln median PBM intensity, better of two orientations | 9.3 ln median PBM intensity, better of two orientations | – |
| GTGCAC_site9533 (dsDNA) DNA 1: TTTTCTATTTAATTGGTGCACTGATATATACACATA DNA 2: TATGTGTATATATCAGTGCACCAATTAAATAGAAAA | 10.5 ln median PBM intensity, better of two orientations | – | 11.6 ln median PBM intensity, better of two orientations |
| GTGCAC_negctrl_site163 (dsDNA) DNA 1: ATTTTTTTATAAAATTTTTATATATTATATAAATAT DNA 2: ATATTTATATAATATATAAAAATTTTATAAAAAAAT | 6.2 ln median PBM intensity, better of two orientations | – | 6.9 ln median PBM intensity, better of two orientations |
| GTGCAC_site9772 (dsDNA) DNA 1: TATATTATCAAAATGGTGCAATAATTTCTATATTAT DNA 2: ATAATATAGAAATTATTGCACCATTTTGATAATATA | 10 ln median PBM intensity, better of two orientations | 12 ln median PBM intensity, better of two orientations | – |
| GTGCAC_site10292 (dsDNA) DNA 1: ATAATATGTTATTAAGTGCATATTAATTATTATTAT DNA 2: ATAATAATAATTAATATGCACTTAATAACATATTAT | 9.18 ln median PBM intensity, better of two orientations | 9.72 ln median PBM intensity, better of two orientations | – |
| GTGCAC_site9436 (dsDNA) DNA 1: AACGAGCAAGACGGGGTGCACACAAACTAATATGCC DNA 2: GGCATATTAGTTTGTGTGCACCCCGTCTTGCTCGTT | 9.89 ln median PBM intensity, better of two orientations | – | 11.8 ln median PBM intensity, better of two orientations |
| GTGCAC_site9426 (dsDNA) DNA 1: ACGTGTATTTATTTAGTGCACTTTATATTTTTTCTT DNA 2: AAGAAAAAATATAAAGTGCACTAAATAAATACACGT | 11.3 ln median PBM intensity, better of two orientations | – | 10.7 ln median PBM intensity, better of two orientations |
| GTGCAC_site9679 (dsDNA) DNA 1: TTTCTTTAATATATAGTGCATGTAAATTTTACAATA DNA 2: TATTGTAAAATTTACATGCACTATATATTAAAGAAA | 8.12 ln median PBM intensity, better of two orientations | 9.43 ln median PBM intensity, better of two orientations | – |
| GTGCAC_site10491 (dsDNA) DNA 1: TAGTGATATAATTATGTGCACTTAATACAGGTCGAT DNA 2: ATCGACCTGTATTAAGTGCACATAATTATATCACTA | 11.1 ln median PBM intensity, better of two orientations | 11.1 ln median PBM intensity, better of two orientations | – |
| GTGCAC_site9965 (dsDNA) DNA 1: AAGAACAAATATGAGGTGCAACACAATATATTATTA DNA 2: TAATAATATATTGTGTTGCACCTCATATTTGTTCTT | 10.2 ln median PBM intensity, better of two orientations | 9.55 ln median PBM intensity, better of two orientations | – |
| GTGCAC_site10284 (dsDNA) DNA 1: TTCTCCTAATAGTTAGTGCACTACATAACTAAGAAA DNA 2: TTTCTTAGTTATGTAGTGCACTAACTATTAGGAGAA | 11.1 ln median PBM intensity, better of two orientations | 12.4 ln median PBM intensity, better of two orientations | – |
| GTGCAC_site10033 (dsDNA) DNA 1: TTATAAAATTACTTGGTGCATTAGAATATTTCAATA DNA 2: TATTGAAATATTCTAATGCACCAAGTAATTTTATAA | 11.1 ln median PBM intensity, better of two orientations | 12.1 ln median PBM intensity, better of two orientations | – |
| GTGCAC_site10202 (dsDNA) DNA 1: AAAATGTAGAAATGGGTGCACACACATATATAATAT DNA 2: ATATTATATATGTGTGTGCACCCATTTCTACATTTT | 9.58 ln median PBM intensity, better of two orientations | – | 11.7 ln median PBM intensity, better of two orientations |
| GTGCAC_site9736 (dsDNA) DNA 1: ATATTTTATGTGTTGGTGCACATCTTTATTTAAACT DNA 2: AGTTTAAATAAAGATGTGCACCAACACATAAAATAT | 9.88 ln median PBM intensity, better of two orientations | – | 10.9 ln median PBM intensity, better of two orientations |
| GTGCAC_negctrl_site138 (dsDNA) DNA 1: AAAAACAATCATTTTAAATAAAAATCTCTAATTTAA DNA 2: TTAAATTAGAGATTTTTATTTAAAATGATTGTTTTT | 5.6 ln median PBM intensity, better of two orientations | 6.74 ln median PBM intensity, better of two orientations | – |
